The values below come from patent publication US20260167718A1 (Merck Sharp & Dohme, published 2026).

Experiment [1] addresses T1, rhesus ILT3-His tagged recombinant protein (rhesus monkey (Macaca mulatta)).
T1 construct: also called ILT3_MM; not shown: His tag
T1 chain: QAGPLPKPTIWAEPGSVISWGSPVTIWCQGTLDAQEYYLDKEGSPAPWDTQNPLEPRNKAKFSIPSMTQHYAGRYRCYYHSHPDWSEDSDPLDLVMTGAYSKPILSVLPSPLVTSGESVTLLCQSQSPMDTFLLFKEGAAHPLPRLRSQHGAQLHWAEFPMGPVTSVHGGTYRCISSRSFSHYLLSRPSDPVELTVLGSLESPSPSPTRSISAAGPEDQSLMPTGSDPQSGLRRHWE
In words: SPR (Biacore), rhesus ILT3-His. As to the method:
(§1) The binding kinetics and affinities of anti-human ILT3 clones for human or rhesus ILT3-His tagged recombinant protein were measured by surface plasmon resonance using a Biacore™ T200 system (GE Healthcare, Piscataway, NJ). HBS-EP+ buffer (BR-1006-69) was used as the running buffer. Anti-human Fc antibody (Human Fc Capture Kit, BR100839, GE Healthcare) was immobilized via amine coupling chemistry in all four flow cells on a Series S CM5 sensor chip (BR100530 or 29149603, GE Healthcare) following manufacturer instructions. Flow cell 1 was used as reference for background subtraction and was not used for capture. […] Following each injection cycle, all four flow cells were regenerated using 30 second injection of 3M MgCl₂ solution at a flow rate of 10 μL/minute. Reference subtracted sensorgrams were fit to a 1:1 Langmuir Binding Model in the Biacore™ T200 Evaluation Software (Version 2.0) to determine the association (ka) and dissociation (kd) rate constants and the equilibrium dissociation constant KD (=kd/ka).

Experiment [2] deals with T2, Human ILT3 (LILRB4) extracellular domain with C-terminal His Tag (human, UniProt Q8NHJ6 22-259).
T2 construct: the claims count residues 1-238 as the extracellular domain; also called human ILT3-His; ILT3_H
In words: SPR (Biacore), human ILT3-His. As to the method: as §1

B1: Humanized anti-ILT3 mAb (52B8 VH1/VL1) IgG4 S228P/Kappa (antibody, V domains shown)
VH: EVQLVESGGGLVQPGGSLRLSCAASGFTFSNYGMSWVRQAPGKGLEWVATISGGGDYTNYPDSMRGRFTISRDNAKNSLYLQMNSLRAEDTAVYYCGRRLWFRSLYYAMDYWGQGTLVTVSS
VL: DIVLTQSPDSLAVSLGERATINCRASEKVDSFGNSFMHWYQQKPGQPPKLLIYLTSNLDSGVPDRFSGSGSRTDFTLTISSLQAEDVAVYYCQQNNEDPYTFGQGTKLEIKR
notes: also called mAb 1
Consider B1, for which the figures for the dissociation constant Kd in experiment [1] and in experiment [2] were 25 nM and 0.99 nM, respectively.

B2: Humanized anti-ILT3 mAb (52B8 VH1 M64V W101F/VL5 S35A) IgG4 S228P/Kappa (antibody, V domains shown)
VH: EVQLVESGGGLVQPGGSLRLSCAASGFTFSNYGMSWVRQAPGKGLEWVATISGGGDYTNYPDSVRGRFTISRDNAKNSLYLQMNSLRAEDTAVYYCGRRLFFRSLYYAMDYWGQGTLVTVSS
VL: DIQLTQSPSSLSASVGDRVTITCRASEKVDSFGNAFMHWYQQKPGKAPKLLIYLTSNLDSGVPSRFSGSGSGTDFTLTISSLQPEDFATYYCQQNNEDPYTFGQGTKLEIKR
notes: also called mAb 51
Regarding B2, the binding result in experiment [1] and in experiment [2] was “no binding (tested: ILT3-His injected up to 20 nM)” in each case.

B3: Humanized anti-ILT3 mAb (52B8 VH2/VL1) IgG4 S228P/Kappa (antibody, V domains shown)
VH: EVQLVESGGGLVQPGGSLRLSCAASGFTFSNYGMSWVRQAPGKGLEWVATISGGGDYTNYPDSMRGRFTISRDNAKNSLYLQMNSLKAEDTAVYYCGRRLWFRSLYYAMDYWGQGTLVTVSS
VL: DIVLTQSPDSLAVSLGERATINCRASEKVDSFGNSFMHWYQQKPGQPPKLLIYLTSNLDSGVPDRFSGSGSRTDFTLTISSLQAEDVAVYYCQQNNEDPYTFGQGTKLEIKR
Regarding B3, the equilibrium dissociation constant (Kd) in experiment [1] amounted to 25 nM; in experiment [2], 0.94 nM.

B4: Humanized anti-ILT3 mAb (52B8 VH1 M64V/VL1) IgG4 S228P/Kappa (antibody, V domains shown)
VH: EVQLVESGGGLVQPGGSLRLSCAASGFTFSNYGMSWVRQAPGKGLEWVATISGGGDYTNYPDSVRGRFTISRDNAKNSLYLQMNSLRAEDTAVYYCGRRLWFRSLYYAMDYWGQGTLVTVSS
VL: DIVLTQSPDSLAVSLGERATINCRASEKVDSFGNSFMHWYQQKPGQPPKLLIYLTSNLDSGVPDRFSGSGSRTDFTLTISSLQAEDVAVYYCQQNNEDPYTFGQGTKLEIKR
notes: also called mAb 9
As to B4, the results for the Kd in experiment [1] and in experiment [2] were 26 nM and 0.94 nM, respectively.

B5: Humanized anti-ILT3 mAb (52B8 VH1 M64V W101Q/VL5 N34Q) IgG4 S228P/Kappa (antibody, V domains shown)
VH: EVQLVESGGGLVQPGGSLRLSCAASGFTFSNYGMSWVRQAPGKGLEWVATISGGGDYTNYPDSVRGRFTISRDNAKNSLYLQMNSLRAEDTAVYYCGRRLQFRSLYYAMDYWGQGTLVTVSS
VL: DIQLTQSPSSLSASVGDRVTITCRASEKVDSFGQSFMHWYQQKPGKAPKLLIYLTSNLDSGVPSRFSGSGSGTDFTLTISSLQPEDFATYYCQQNNEDPYTFGQGTKLEIKR
notes: also called mAb 61
Consider B5, for which the binding result in experiment [1] and in experiment [2] was “no binding (tested: ILT3-His injected up to 20 nM)” throughout.

B6: Humanized anti-ILT3 mAb (52B8 VH1 M64V W101Q/VL5 S35A) IgG4 S228P/Kappa (antibody, V domains shown)
VH: EVQLVESGGGLVQPGGSLRLSCAASGFTFSNYGMSWVRQAPGKGLEWVATISGGGDYTNYPDSVRGRFTISRDNAKNSLYLQMNSLRAEDTAVYYCGRRLQFRSLYYAMDYWGQGTLVTVSS
VL: DIQLTQSPSSLSASVGDRVTITCRASEKVDSFGNAFMHWYQQKPGKAPKLLIYLTSNLDSGVPSRFSGSGSGTDFTLTISSLQPEDFATYYCQQNNEDPYTFGQGTKLEIKR
notes: also called mAb 59
As to B6, the binding result in experiment [1] and in experiment [2] was “no binding (tested: ILT3-His injected up to 20 nM)” throughout.

B7: Humanized anti-ILT3 mAb (52B8 VH1 M64V W101F/VL5 N34Q) IgG4 S228P/Kappa (antibody, V domains shown)
VH: EVQLVESGGGLVQPGGSLRLSCAASGFTFSNYGMSWVRQAPGKGLEWVATISGGGDYTNYPDSVRGRFTISRDNAKNSLYLQMNSLRAEDTAVYYCGRRLFFRSLYYAMDYWGQGTLVTVSS
VL: DIQLTQSPSSLSASVGDRVTITCRASEKVDSFGQSFMHWYQQKPGKAPKLLIYLTSNLDSGVPSRFSGSGSGTDFTLTISSLQPEDFATYYCQQNNEDPYTFGQGTKLEIKR
notes: also called mAb 53
With B7, in experiment [1], the binding result is “no binding (tested: ILT3-His injected up to 20 nM)”. In experiment [2], the affinity, expressed as Kd, was 35 nM.

B8: Humanized anti-ILT3 mAb (52B8 VH1 M64V W101Q/VL5 S35N) IgG4 S228P/Kappa (antibody, V domains shown)
VH: EVQLVESGGGLVQPGGSLRLSCAASGFTFSNYGMSWVRQAPGKGLEWVATISGGGDYTNYPDSVRGRFTISRDNAKNSLYLQMNSLRAEDTAVYYCGRRLQFRSLYYAMDYWGQGTLVTVSS
VL: DIQLTQSPSSLSASVGDRVTITCRASEKVDSFGNNFMHWYQQKPGKAPKLLIYLTSNLDSGVPSRFSGSGSGTDFTLTISSLQPEDFATYYCQQNNEDPYTFGQGTKLEIKR
notes: also called mAb 60
As to B8, the binding result in experiment [1] and in experiment [2] was “no binding (tested: ILT3-His injected up to 20 nM)” in each case.

B9: Humanized anti-ILT3 mAb (52B8 VH2 M64V/VL1) IgG4 S228P/Kappa (antibody, V domains shown)
VH: EVQLVESGGGLVQPGGSLRLSCAASGFTFSNYGMSWVRQAPGKGLEWVATISGGGDYTNYPDSVRGRFTISRDNAKNSLYLQMNSLKAEDTAVYYCGRRLWFRSLYYAMDYWGQGTLVTVSS
VL: DIVLTQSPDSLAVSLGERATINCRASEKVDSFGNSFMHWYQQKPGQPPKLLIYLTSNLDSGVPDRFSGSGSRTDFTLTISSLQAEDVAVYYCQQNNEDPYTFGQGTKLEIKR
notes: also called mAb 13
As to B9, the results for the dissociation constant (Kd) in experiment [1] and in experiment [2] were 25 nM and 0.94 nM, respectively.

B10: Humanized anti-ILT3 mAb (52B8 VH1 M64V W101Q/VL5 N34D) IgG4 S228P/Kappa (antibody, V domains shown)
VH: EVQLVESGGGLVQPGGSLRLSCAASGFTFSNYGMSWVRQAPGKGLEWVATISGGGDYTNYPDSVRGRFTISRDNAKNSLYLQMNSLRAEDTAVYYCGRRLQFRSLYYAMDYWGQGTLVTVSS
VL: DIQLTQSPSSLSASVGDRVTITCRASEKVDSFGDSFMHWYQQKPGKAPKLLIYLTSNLDSGVPSRFSGSGSGTDFTLTISSLQPEDFATYYCQQNNEDPYTFGQGTKLEIKR
notes: also called mAb 62
Take B10: the binding result in experiment [1] and in experiment [2] was “no binding (tested: ILT3-His injected up to 20 nM)” throughout.

B11: Humanized anti-ILT3 mAb (52B8 VH1 M64V W101F/VL5 N34D) IgG4 S228P/Kappa (antibody, V domains shown)
VH: EVQLVESGGGLVQPGGSLRLSCAASGFTFSNYGMSWVRQAPGKGLEWVATISGGGDYTNYPDSVRGRFTISRDNAKNSLYLQMNSLRAEDTAVYYCGRRLFFRSLYYAMDYWGQGTLVTVSS
VL: DIQLTQSPSSLSASVGDRVTITCRASEKVDSFGDSFMHWYQQKPGKAPKLLIYLTSNLDSGVPSRFSGSGSGTDFTLTISSLQPEDFATYYCQQNNEDPYTFGQGTKLEIKR
notes: also called mAb 54
For B11, the binding result in experiment [1] and in experiment [2] was “no binding (tested: ILT3-His injected up to 20 nM)” throughout.

B12: Humanized anti-ILT3 mAb (52B8 VH1 M64L/VL1) IgG4 S228P/Kappa (antibody, V domains shown)
VH: EVQLVESGGGLVQPGGSLRLSCAASGFTFSNYGMSWVRQAPGKGLEWVATISGGGDYTNYPDSLRGRFTISRDNAKNSLYLQMNSLRAEDTAVYYCGRRLWFRSLYYAMDYWGQGTLVTVSS
VL: DIVLTQSPDSLAVSLGERATINCRASEKVDSFGNSFMHWYQQKPGQPPKLLIYLTSNLDSGVPDRFSGSGSRTDFTLTISSLQAEDVAVYYCQQNNEDPYTFGQGTKLEIKR
notes: also called mAb 17
Take B12: the Kd in experiment [1] stood at 24 nM; in experiment [2], 0.87 nM.

B13: Humanized anti-ILT3 mAb (52B8 VH1 M64V W101F/VL5 S35N) IgG4 S228P/Kappa (antibody, V domains shown)
VH: EVQLVESGGGLVQPGGSLRLSCAASGFTFSNYGMSWVRQAPGKGLEWVATISGGGDYTNYPDSVRGRFTISRDNAKNSLYLQMNSLRAEDTAVYYCGRRLFFRSLYYAMDYWGQGTLVTVSS
VL: DIQLTQSPSSLSASVGDRVTITCRASEKVDSFGNNFMHWYQQKPGKAPKLLIYLTSNLDSGVPSRFSGSGSGTDFTLTISSLQPEDFATYYCQQNNEDPYTFGQGTKLEIKR
Regarding B13, the binding result in experiment [1] and in experiment [2] was “no binding (tested: ILT3-His injected up to 20 nM)” in each case.
